Experiments:
[1] = from Diabetes Care, Vol. 6/Supplement 1 (1983), 4; cited from earlier work
[2] = Di- and polymerization products formed on storage at 25 C, HPSEC; format: physicochemical; settings: 3 Zn++ per hexamer
Experimental: The compositions tested were as follows: 0.24 mM insulin analog, 0.3% /w/v) m-cresol, 1.6% (w/v) glycerol, 0.01 M sodium acetate and 3 Zn^++ per insulin hexamer. The determination was made using HPSEC (high performance size exclusion chromatography).
A reference insulin having Asn^A21 is included for comparison.

[3] = Deamidation products formed on storage at 25° C., pH 3, DISC PAGE analysis; format: physicochemical; settings: 0.24 mM analog, 3 Zn++ per hexamer
Experimental: Deamidation products formed per month after storage 25 at 25° C. and a pH value of 3.
The compositions tested were as follows: 0.24 mM insulin analog, 0.3% (w/v) m-cresol, 1.6% (w/v) glycerol, 3 Zn^++ per insulin hexamer and 0.01 M sodium acetate to obtain a pH value of 3. The determinations were made using DISC PAGE analysis.

| Substance | established potency [1] [U/mg dry substance] | Di- and polymerization products formed per month ([2]; pH of formulation 3.0, 0.24 mM analog) [%] | Di- and polymerization products formed per month ([2]; pH of formulation 4.0, 0.24 mM analog) [%] | Di- and polymerization products formed per month ([2]; pH of formulation 5.0, 0.24 mM analog) [%] | Deamidation products formed per month [3] |
| --- | --- | --- | --- | --- | --- |
| monocomponent procine insulin: monocomponent porcine insulin | 28.5 | – | – | – | – |
| Arg^B27 Thr^B30 --NH2 human insulin | – | 0.15 | 0.62 | 1.4 | approx. 10% |
